Tests used:
[1] = molecular target: T1, FBXW8 (human, UniProt Q8N3Y1 1-598); assay: cryo-EM structure; purified CRL7^FBXW8 and CUL1 N-terminal region mixed 15 min before plunging, on ice; Glacios 200 kV; conditions: both partners purified
T1 construct: FBXW8, human, full length; source: HEK293S, co-expressed (BacMam), purified within CRL7^FBXW8; not shown: GFP, N-terminal, cleaved
T1 sequence (looked up): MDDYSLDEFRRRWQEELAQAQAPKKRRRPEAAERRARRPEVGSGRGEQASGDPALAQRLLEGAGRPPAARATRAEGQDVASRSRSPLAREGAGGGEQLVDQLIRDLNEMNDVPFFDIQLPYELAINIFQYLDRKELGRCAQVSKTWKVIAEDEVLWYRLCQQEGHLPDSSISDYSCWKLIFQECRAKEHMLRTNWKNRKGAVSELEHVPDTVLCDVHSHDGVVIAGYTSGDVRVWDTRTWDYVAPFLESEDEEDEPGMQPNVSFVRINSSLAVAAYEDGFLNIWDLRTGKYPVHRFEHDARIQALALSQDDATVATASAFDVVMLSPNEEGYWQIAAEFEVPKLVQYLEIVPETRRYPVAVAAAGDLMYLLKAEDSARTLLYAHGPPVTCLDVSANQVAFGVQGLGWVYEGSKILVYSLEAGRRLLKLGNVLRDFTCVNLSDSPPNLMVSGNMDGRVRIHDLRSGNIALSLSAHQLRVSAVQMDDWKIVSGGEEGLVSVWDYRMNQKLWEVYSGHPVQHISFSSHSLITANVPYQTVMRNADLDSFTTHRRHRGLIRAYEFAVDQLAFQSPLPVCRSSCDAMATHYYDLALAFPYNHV

[2] = molecular target: T2, CUL1–RBX1 (full-length CUL1) (human, UniProt Q13616 1-776; P62877 5-108); assay: SEC; comigration; proteins mixed at equimolar 1.5 μM for at least 10 min on ice; Superose 6 5/150GL; 50 mM Tris pH 7.5, 150 mM NaCl, 1 mM DTT; fractions on Coomassie-stained SDS–PAGE; conditions: both partners purified
T2 construct: CUL1, human, full length; RBX1, human, residue 5 to C terminus; Unneddylated form used in the SEC experiments; also called full-length CUL1–RBX1; not shown: GST, N-terminal, cleaved

Row | Binder | binding result [1] | binding result [2]
1 | CUL1 N-terminal region (residues 1–410) (domain or fragment, CUL1, human, residues 1 to 410 encompassing the CR1, CR2 and CR3 domains; Expressed as a GST-thrombin or GST-TEV fusion; also called CUL1^NTD; N-terminal region of CUL1 (CR1, CR2 and CR3 domains)) not shown | binds | 
2 | SKP1^ΔΔ–β-TRCP1 (monomeric form) complex (complex, human, β-TRCP1, human, monomeric form, from residue 175 to C terminus; also called SKP1-β-TRCP1; SKP-β-TRCP1; not shown: His-MBP, N-terminal, cleaved) chain 1: MLQRDFITALPARGLDHIAENILSYLDAKSLCAAELVCKEWYRVTSDGMLWKKLIERMVRTDSLWRGLAERRGWGQYLFKNKPPDGNAPPNSFYRALYPKIIQDIETIESNWRCGRHSLQRIHCRSETSKGVYCLQYDDQKIVSGLRDNTIKIWDKNTLECKRILTGHTGSVLCLQYDERVIITGSSDSTVRVWDVNTGEMLNTLIHHCEAVLHLRFNNGMMVTCSKDRSIAVWDMASPTDITLRRVLVGHRAAVNVVDFDDKYIVSASGDRTIKVWNTSTCEFVRTLNGHKRGIACLQYRDRLVVSGSSDNTIRLWDIECGACLRVLEGHEELVRCIRFDNKRIVSGAYDGKIKVWDLVAALDPRAPAGTLCLRTLVEHSGRVFRLQFDEFQIVSSSHDDTILIWDFLNDPAAQAEPPRSPSRTYTYISR chain 2: MPSIKLQSSDGEIFEVDVEIAKQSVTIKTMLEDLGMDPVPLPNVNAAILKKVIQWCTHHKDDPPDDIPVWDQEFLKVDQGTLFELILAANYLDIKGLLDVTCKTVANMIKGKTPEEIRKTFNIKNDFTEEEEAQVRKENQWCEEK |  | binds

— article PMC9507964, “Structure of CRL7^FBXW8 reveals coupling with CUL1–RBX1/ROC1 for multi-cullin-RING E3-catalyzed ubiquitin ligation” (Nature Structural & Molecular Biology, 2022)
